The record followed here is PMC4344121.

Where no end group is shown, it is not given here. The star is where a group is joined. lipoyl = O=C(CCCC[C@@H]1CCSS1)*

The experiment concerns the target T1, N-terminally truncated human SIRT4 (33-314) (human) (UniProt Q9Y6E7).
T1 sequence: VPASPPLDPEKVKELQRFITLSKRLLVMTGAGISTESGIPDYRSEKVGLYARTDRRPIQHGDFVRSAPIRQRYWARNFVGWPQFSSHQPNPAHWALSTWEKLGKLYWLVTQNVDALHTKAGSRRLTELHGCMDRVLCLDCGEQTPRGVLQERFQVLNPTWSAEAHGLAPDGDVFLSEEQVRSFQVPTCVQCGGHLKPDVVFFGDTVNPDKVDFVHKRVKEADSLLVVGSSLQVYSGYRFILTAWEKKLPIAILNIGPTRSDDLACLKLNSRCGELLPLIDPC

For EIETDK(lipoyl)ATIGW [DLAT K259 Lipoyl peptide], the Km of delipoylation, steady-state kinetics (HPLC-based assay, SIRT4 5 μM) is 239 µM.
